Target: dual specificity anti-activin A/B antibody (human IgG1 format) (human)
Assay: BLI

Kd: 0.13 nM
B1: mature human activin A (ligand)
chain: GLECDGKVNICCKKQFFVSFKDIGWNDWIIAPSGYHANYCEGECPSHIAGTSGSSLSFHSTVINHYRMRGHSPFANLKSCCVPTKLRPMSMLYYDDGQNIIKKDIQNMIVEECGCS

Source: paper doi:10.1101/2025.06.13.659133
